# US20040235029A1
# Target: exonuclease V (ExoV) of E. coli, a component of RecBCD holoenzyme (E. coli) (UniProt P08394)
# Assay: cell-based or functional assay
# Chain of UniProt P08394 (P08394 2-1180 limits assumed, chain 1 of 3): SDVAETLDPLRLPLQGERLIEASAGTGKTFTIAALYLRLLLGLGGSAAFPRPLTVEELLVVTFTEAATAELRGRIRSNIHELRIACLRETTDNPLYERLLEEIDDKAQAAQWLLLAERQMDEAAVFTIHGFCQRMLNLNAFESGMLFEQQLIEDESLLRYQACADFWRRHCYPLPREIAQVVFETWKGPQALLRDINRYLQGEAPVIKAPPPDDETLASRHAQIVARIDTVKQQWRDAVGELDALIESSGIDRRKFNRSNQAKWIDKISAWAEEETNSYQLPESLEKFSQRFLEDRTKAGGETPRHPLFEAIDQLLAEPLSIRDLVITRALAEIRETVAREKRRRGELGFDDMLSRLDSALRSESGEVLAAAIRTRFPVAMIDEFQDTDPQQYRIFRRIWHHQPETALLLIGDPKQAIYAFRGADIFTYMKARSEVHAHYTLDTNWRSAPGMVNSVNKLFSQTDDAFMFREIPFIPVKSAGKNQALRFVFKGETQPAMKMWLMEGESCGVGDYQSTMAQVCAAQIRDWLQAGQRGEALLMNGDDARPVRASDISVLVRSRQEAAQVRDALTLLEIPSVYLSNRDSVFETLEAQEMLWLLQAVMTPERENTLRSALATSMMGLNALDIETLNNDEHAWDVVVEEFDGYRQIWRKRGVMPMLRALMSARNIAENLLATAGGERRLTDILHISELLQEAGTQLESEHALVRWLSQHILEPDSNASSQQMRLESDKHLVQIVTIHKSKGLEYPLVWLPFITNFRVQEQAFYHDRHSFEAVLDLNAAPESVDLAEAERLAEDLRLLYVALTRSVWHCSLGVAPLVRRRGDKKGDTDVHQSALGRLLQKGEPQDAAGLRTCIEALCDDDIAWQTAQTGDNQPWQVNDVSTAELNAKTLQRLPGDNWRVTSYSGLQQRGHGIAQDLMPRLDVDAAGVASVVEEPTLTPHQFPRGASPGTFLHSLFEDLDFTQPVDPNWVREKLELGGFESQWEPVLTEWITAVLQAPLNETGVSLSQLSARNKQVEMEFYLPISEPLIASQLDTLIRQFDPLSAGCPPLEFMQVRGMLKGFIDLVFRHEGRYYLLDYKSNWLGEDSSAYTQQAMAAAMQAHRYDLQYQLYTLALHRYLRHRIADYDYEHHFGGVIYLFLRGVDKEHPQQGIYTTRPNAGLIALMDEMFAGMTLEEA
# Chain of UniProt P08394 (P07648 whole entry, chain 2 of 3, further chain): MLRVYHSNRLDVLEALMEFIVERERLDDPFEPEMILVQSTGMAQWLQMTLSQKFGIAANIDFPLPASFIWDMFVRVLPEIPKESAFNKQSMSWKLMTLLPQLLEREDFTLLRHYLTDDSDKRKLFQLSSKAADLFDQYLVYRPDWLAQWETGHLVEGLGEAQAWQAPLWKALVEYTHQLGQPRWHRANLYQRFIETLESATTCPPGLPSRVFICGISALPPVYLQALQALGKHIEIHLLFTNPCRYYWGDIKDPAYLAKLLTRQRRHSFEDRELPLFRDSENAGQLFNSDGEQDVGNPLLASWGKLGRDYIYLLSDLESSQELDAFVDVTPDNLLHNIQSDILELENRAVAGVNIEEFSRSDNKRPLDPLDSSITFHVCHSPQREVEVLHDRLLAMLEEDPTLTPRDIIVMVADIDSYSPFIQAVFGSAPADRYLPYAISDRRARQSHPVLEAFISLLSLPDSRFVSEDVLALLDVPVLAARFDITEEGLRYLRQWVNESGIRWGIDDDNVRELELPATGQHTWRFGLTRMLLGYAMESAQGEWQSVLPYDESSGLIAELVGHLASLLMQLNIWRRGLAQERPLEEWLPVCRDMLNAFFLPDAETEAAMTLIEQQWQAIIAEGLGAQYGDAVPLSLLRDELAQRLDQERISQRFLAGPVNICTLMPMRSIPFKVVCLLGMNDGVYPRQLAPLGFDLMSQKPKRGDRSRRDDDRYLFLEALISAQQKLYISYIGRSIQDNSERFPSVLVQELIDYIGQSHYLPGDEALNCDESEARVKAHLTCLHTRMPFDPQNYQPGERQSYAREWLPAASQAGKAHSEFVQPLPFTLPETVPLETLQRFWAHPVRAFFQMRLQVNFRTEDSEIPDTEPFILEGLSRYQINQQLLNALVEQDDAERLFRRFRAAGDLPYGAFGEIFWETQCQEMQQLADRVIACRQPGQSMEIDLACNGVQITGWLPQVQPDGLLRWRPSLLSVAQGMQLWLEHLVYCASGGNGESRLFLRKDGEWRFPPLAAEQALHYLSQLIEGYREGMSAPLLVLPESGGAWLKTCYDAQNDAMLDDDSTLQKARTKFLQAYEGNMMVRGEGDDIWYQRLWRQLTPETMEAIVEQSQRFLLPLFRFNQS
# Chain of UniProt P08394 (P04993 whole entry, chain 3 of 3, further chain): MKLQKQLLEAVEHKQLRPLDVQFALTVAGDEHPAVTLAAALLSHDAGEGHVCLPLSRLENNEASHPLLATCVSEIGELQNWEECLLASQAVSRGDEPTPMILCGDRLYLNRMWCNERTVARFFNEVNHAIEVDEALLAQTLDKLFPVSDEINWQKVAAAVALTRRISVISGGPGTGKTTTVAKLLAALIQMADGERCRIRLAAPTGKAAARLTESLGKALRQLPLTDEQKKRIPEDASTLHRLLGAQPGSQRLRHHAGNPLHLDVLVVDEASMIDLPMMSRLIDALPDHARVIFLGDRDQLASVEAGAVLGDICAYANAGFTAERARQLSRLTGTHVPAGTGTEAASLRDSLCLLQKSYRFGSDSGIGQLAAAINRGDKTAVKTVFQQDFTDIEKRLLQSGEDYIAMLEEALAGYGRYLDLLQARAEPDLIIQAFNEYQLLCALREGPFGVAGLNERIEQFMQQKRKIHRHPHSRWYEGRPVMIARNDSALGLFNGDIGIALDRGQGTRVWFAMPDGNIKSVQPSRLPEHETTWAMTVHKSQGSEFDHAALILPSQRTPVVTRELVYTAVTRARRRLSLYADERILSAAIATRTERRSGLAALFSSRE
substance,measurement,value
GamS protein of bacteriophage lambda with C-terminal 6His tag (from UniProt P03702 41-138),GFP expression from linear template in batch IVT with co-expressed GamS plasmid template (Coomassie staining of gel),> 2 fold
same,"GFP expression from linear template in batch IVT with crude GamS (PAGE, Coomassie), against control reaction without GamS",2 fold
same,"GFP protein synthesis from a linear template in batch mode IVT (Coomassie staining of gel), against control reactions lacking GamS",3 fold
